Assay results reported in patent publication EP1557429A1 (Vectron Therapeutics AG, dated 2005).

How the values were obtained:
EGF receptor [1] = target: T1, EGF receptor (UniProt P00533 25-1210, limits assumed); test: immunofluorescence of phage on A431 cells
T1 construct: whole, on cells; also called epidermal growth factor receptor

EGF receptor [2] = target: T1, EGF receptor; test: competition of fdEGF phage binding to A431 cells, FACS, inhibition from mean fluorescence intensity

Binder | binding result (EGF receptor [1]) | IC50 (EGF receptor [2])
EGF1 library clone 3 (phage-displayed EGF variant) (other, displayed on phage as a coat protein fusion (pHEN3), also called EGF1 # 3; not shown: phage coat protein fusion partner of phagemid pHEN3 (and any vector tags) at the C end) NSDSECPLSHDGYCLHDGVCMYIEALDEYACNCVVGYIGERCQYRDLRWWELR | binds | –
HisEGFm1 (EGFm1 with N-terminal hexahistidyl tag) (ligand, human, UniProt P01133 971-1023, looked up, mature; Clone 6 of the EGF2 library selection, expressed in the E. coli periplasm and purified by IMAC; The preparation also held molecules of about 15 kDa (dimer size); also called purified EGFm1; soluble EGFm1; not shown: N-terminal hexahistidyl tag (HHHHHH); primer SfiHisEGF encodes ...Met-Ala-Gly-His6-Ala befor) NSDSECPLSHDGYCLHDGVCMYIEALDQYACNCVVGYIGERCQYSDLSWWELS | – | ~500 nM
